The text below walks through data of patent publication US20250034245A1 (FRED HUTCHINSON CANCER CENTER, published 2025).

B1: S8-ATX1E4 (antibody, V domains shown)
VH: QVQLVQSGSELKKPGASVKVSCKTSGYTFTSYAMNWVRQAPGQGLEWMGWINTNTGNPTYAQGFRGRFVFSLDTSVSTAYLQISSLKAEDTAVYYCARDKYSSSWYWFDSWGQGTLVTVSS
VL: DIQMTQSPSSLSASVGDRVTITCRPSQNISSYLNWYQQKPGKAPKLLIYAASSLRSGVPSRFSGSGSGTDFTLTVSSLQPEDFANYYCQQSYSTPYTFGRGTKLEIK
notes: Only variable domains are tied to the name in the text; Produced as recombinant human IgG1 and IgG4 (S228P), kappa light chain; also called Sig8-1E4
B2: S8-ATX2A3 (antibody, V domains shown)
VH: QVQLQESGPGLVKPSETLSLTCTVSGASISGYYWNWIRQPPGKGLEWIGYIHYSGTTNYNPSLKSRITISLDTSENQFSLRLSSVTAADTAVYYCARDWYTGYDWEGFDYWGQGTLVTVSS
VL: QSVLTQPPSVSGAPGQRVSFSCTGTSSNIGTGFDVHWYRQLPGTAPKVLIYNNNNRPSGVPDRFSASKSGTSASLAITGLQAEDEADYYCQSYDSSLSGSVFGGGTRLTVL
notes: Only variable domains are tied to the name in the text; IgG1 format in ADCC and eosinophil assays; also called Sig8-2A3
B3: S8-ATX2F10 (antibody, V domains shown)
VH: EVQLVESGGDLVKSGGSLRLSCAASGFTFSDAWMSWVRQAPGKGLEWVGRIQSKTDGGTTDYVAPVKGRFTISRDDSKDTLYLHMNSLTTEDTAVYYCTTDLYYYGSGSYFLGQGTLVTVSS
VL: DIQMTQSPSSLSASVGDRVTITCRASQNIITYLNWYQQKPGKAPKLLIYAASSLQSGVPSRFSGSGSGTDFTLTISSLQPEDFAIYHCQQSYNVPTTFGQGTKLEIK
notes: Only variable domains are tied to the name in the text; also IgG4 (S228P); also called Sig8-2F10; S8-2F10
B4: S8-ATX1H4 (antibody, V domains shown)
VH: QVQLVQSGTEVKYPGASVKVSCKASGYTFIDYGISWVRQAPGQGLEWMGWISAYNGNTDYAQKLQGRVTMTTDTSTSTAYMDLRSLRSDDTAVYYCAREGEGYCTYGVCPSFDYWGQGTLVTVSS
VL: EIVLTQSPGTLSLSPGERATLSCRASQSVSSSYLAWYQQKPGQAPRLLIYGASTRGTGIPDRFSGSGSGTDFTLTISRLEPEDFALYYCQQYGSSPYTFGQGTKLEIK
notes: Only variable domains are tied to the name in the text; Produced as recombinant human IgG1 and IgG4 (S228P), kappa light chain; also called Sig8-1H4
B5: S8-ATX1B6 (antibody, V domains shown)
VH: QVQLVESGGGVVLPGRSLRLSCAASGFTFNIYGMHWVRQAPGKGLEWVAVISYDGNNKEYADSVKGRFTISRDSSRNTLYLQMNSLRAEDTAVYYCAKRGYGSSSLEFWGQGTLVTVSS
VL: DIQMTQSPSSLSASVGDRVTITCRSSQDIRNDLGWYQQKPGKAPKRLIYASSNLQSGVPSRFSGSGSGTEFTLTISSLQPDDFATYYCLQHNTYPYTFGQGTKLEIK
notes: Only variable domains are tied to the name in the text; also made as IgG4 (S228P); also called Sig8-1B6; 11B6
B6: S8-ATX1B4 (antibody, V domains shown)
VH: QVQLVESGGGVVQPGRSLRLSCAASGFTFSIYGMHWVRQAPGKGLEWVAVISYDGNNKDYTDSVKGRFTISRDNSKNTLYLQMNSLTAEDTAVYYCAKRGYGSSSLEFWGQGTLVTVSS
VL: DIQMTQSPSSLSASVGDRVTITCRASQDIRNDLGWYQQKPGKAPKRLIYATSSLQSGVPSRFSGSRSGAEFTLTVSSLQPEDFATYYCLQHNTYPYTFGQGTKLEIK
notes: Only variable domains are tied to the name in the text; Produced as recombinant fully human IgG1 and IgG4 (S228P) with a kappa light chain; also called Sig8-1B4; 11B4
B7: S8-ATX1E1 (antibody, V domains shown)
VH: EVQLVESGGGLVQPGRSLRLSCAASGFMFDDYVMHWVRQAPGKGLEWVSGINWNSDNIGYADSVKGRFTISRDNAKNSLFLQMNSLRVEDTALYYCAKDIDAAAFDYWGQGTLVTVSS
VL: DIVMTQSPLSLPVTPGEPASISCRSSQSLLHSNGYSYLAWYLQKPGQSPQLLIYLVSNRASGVPDRFTGSGSGTDFTLKISRVEAEDVGVYYCMQALQTPWTFGQGTKVEIK
notes: Only variable domains are tied to the name in the text; Produced as recombinant human IgG1 and IgG4 (S228P), kappa light chain; also called Sig8-1E1
B8: negative control mAb 13R4 (recognizing E. coli beta-galactosidase) (antibody, V domains shown)
VH: EVQLVESGGSLVKPGGSLRLSCAASGFTFSNYSMNWVRQAPGKGLEWISSISGSSRYIYYADFVKGRFTISRDNATNSLYLQMNSLRAEDTAVYYCVRSSITIFGGGMDVWGRGTLVTVSS
VL: QSVLTQPASVSGSPGQSITISCAGTSSDVGGYNYVSWYQQHPGKAPKLMIYEDSKRPSGVSNRFSGSKSGNTASLTISGLQAEDEADYYCSSYTTRSTRVFGGGTKLAVLG

T1 sequence (Q9NYZ4 17-499): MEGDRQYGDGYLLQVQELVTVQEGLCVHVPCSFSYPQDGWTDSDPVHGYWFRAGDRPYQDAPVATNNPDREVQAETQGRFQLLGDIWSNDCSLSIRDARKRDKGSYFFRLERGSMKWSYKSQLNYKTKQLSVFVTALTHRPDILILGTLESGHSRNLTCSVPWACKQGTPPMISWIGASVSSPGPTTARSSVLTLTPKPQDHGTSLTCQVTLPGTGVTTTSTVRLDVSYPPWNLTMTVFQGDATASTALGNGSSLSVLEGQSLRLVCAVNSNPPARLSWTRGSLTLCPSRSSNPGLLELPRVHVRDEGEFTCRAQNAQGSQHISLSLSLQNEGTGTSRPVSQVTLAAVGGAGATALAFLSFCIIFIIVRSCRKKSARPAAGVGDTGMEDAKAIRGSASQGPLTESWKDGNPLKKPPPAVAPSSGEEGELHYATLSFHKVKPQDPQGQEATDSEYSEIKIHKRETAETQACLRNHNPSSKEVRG

One assay concerns the target T1, full-length human Siglec-8 (Siglec-8^FL) (human, UniProt Q9NYZ4 17-499).
T1 construct: whole, on cells; Expressed by lentiviral transduction on K562, RS4;11, TF-1, EOL-1 and other cells; the same id is used for Siglec-8 endogenously expressed on LUVA cells, HMC1.2 cells and primary human eosinophils; also called Siglec-8^Hu; SAF2
In words: flow cytometry on K562 cells expressing Siglec-8 FL (FIG. 9C). The method, then:
(§1) FIGS. 9A-9D. Human Siglec-8 mAbs were tested flow cytometrically against (FIG. 9A) parental human lymphoid RS4; 11 cells (endogenously lacking Siglec-8 expression) and a subline engineered to express Siglec-8^FL, (FIG. 9B) parental human mast cell line, HMC1.2, enriched for expression of endogenous Siglec-8; and (FIG. 9C) parental human myeloid K562 (endogenously lacking Siglec-8 expression) and sublines of K562 cells engineered to express either Siglec-8^FL, Siglec-8^ΔE2, or Siglec-8^V-set; and (FIG. 9D) primary human eosinophils, as indicated. A negative control without primary mAbs was included, as was, in some experiments, a negative control with a non-binding primary mAb (13R4).
A general note: A flow cytometer gives signals particle by particle.
For the molecule B1, the binding result is reported as “binds”.

As for B2, the binding result is recorded as “binds”.

With B3, the binding result is listed as “binds”.

For B4, the binding result is recorded as “binds”.

B5: the binding result is given as “binds”.

Regarding B6, the binding result was “binds”.

Turning to B7, the binding result was “binds”.

A further assay addresses T1, full-length human Siglec-8 (Siglec-8^FL). Description: flow cytometry on Siglec-8-expressing cells, in some experiments of FIGS. 9A-9D. The method, then:
as §1
Take B8: the binding result was “no binding”.
